What all share (assay): SPR
For orientation: Surface plasmon resonance follows binding to a sensor surface in real time, without labels.

Assay [1] has as its target T1, recombinant human full-length CD20 (human, UniProt P11836 1-297).
T1 chain: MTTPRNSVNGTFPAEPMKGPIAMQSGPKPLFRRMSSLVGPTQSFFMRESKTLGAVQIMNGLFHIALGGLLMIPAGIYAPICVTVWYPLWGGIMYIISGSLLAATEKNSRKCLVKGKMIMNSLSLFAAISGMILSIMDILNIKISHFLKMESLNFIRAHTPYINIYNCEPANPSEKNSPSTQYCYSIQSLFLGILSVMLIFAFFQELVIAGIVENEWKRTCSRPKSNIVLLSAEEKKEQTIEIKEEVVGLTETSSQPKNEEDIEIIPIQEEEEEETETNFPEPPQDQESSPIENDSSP

Assay [2] concerns the target T2, recombinant human Fc gamma RI (CD64) (human, UniProt P12314 16-288).
T2 chain: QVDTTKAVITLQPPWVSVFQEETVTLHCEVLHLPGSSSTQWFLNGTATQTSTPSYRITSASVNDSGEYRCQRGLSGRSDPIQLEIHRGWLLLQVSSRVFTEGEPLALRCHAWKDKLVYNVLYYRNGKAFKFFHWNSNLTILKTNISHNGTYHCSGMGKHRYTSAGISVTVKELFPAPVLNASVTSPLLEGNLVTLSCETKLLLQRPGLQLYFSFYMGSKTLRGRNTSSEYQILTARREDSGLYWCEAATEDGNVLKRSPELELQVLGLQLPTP

Another assay concerns the target T3, recombinant human CD19 (human, UniProt P15391 20-291).
T3 chain: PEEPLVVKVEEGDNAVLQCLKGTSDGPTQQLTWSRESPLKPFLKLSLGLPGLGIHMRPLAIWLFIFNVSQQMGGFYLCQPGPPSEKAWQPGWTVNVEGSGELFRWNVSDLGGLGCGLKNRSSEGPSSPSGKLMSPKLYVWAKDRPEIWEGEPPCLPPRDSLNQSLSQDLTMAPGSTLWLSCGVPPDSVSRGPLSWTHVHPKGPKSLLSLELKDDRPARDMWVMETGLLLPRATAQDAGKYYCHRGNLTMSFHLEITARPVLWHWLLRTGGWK

In assay [3] the target is T4, recombinant human Fc gamma RIIa (CD32a) 131R (human, UniProt P12318 36-218).
T4 chain: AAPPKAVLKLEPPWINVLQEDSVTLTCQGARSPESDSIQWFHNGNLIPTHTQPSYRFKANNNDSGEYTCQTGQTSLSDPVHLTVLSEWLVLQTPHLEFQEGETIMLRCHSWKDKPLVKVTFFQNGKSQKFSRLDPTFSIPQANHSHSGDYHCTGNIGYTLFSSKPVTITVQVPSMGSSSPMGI

The next assay concerns the target complement component C1q (UniProt P02745 23-245; P02746 28-253; P02747 29-245).
The target of assay [4] is recombinant human Fc gamma RIIIa (CD16a) 158V (human, UniProt P08637 17-208).
Chain of recombinant human Fc gamma RIIIa (CD16a) 158V (P08637 17-208 F176V): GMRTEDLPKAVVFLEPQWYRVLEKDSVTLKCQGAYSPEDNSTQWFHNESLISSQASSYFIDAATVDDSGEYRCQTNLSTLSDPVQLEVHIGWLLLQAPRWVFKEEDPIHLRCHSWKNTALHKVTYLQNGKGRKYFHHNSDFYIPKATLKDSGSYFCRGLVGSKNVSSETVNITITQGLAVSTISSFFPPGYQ

Chain of complement component C1q (P02745 23-245, chain 1 of 3): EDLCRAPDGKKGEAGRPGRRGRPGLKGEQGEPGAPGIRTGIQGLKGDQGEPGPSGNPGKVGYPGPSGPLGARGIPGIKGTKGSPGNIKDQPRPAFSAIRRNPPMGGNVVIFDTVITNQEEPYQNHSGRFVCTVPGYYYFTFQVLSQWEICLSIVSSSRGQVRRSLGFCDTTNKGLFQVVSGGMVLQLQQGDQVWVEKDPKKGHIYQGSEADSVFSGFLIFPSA
Chain of complement component C1q (P02746 28-253, chain 2 of 3): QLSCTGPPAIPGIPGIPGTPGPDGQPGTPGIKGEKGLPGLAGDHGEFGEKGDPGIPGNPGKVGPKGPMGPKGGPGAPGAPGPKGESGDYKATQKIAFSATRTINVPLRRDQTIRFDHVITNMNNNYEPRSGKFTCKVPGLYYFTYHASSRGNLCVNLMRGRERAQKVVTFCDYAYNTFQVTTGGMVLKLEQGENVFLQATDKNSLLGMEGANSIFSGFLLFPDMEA
Chain of complement component C1q (P02747 29-245, chain 3 of 3): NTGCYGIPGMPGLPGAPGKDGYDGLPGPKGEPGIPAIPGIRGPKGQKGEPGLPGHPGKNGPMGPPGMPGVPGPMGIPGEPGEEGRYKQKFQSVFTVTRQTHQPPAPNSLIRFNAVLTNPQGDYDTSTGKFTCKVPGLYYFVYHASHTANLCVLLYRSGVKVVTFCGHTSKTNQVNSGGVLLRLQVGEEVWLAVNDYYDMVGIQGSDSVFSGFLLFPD

B1: Rituximab (antibody)
VH: not shown
VL: QIVLSQSPAILSASPGEKVTMTCRASSSVSYIHWFQQKPGSSPKPWIYATSNLASGVPVRFSGSGSGTSYSLTISRVEAEDAATYYCQQWTSNPPTFGGGTKLEIKRTVAAPSVFIFPPSDEQLKSGTASVVCLLNNFYPREAKVQWKVDNALQSGNSQESVTEQDSKDSTYSLSSTLTLSKADYEKHKVYACEVTHQGLSSPVTKSFNRGEC
Take B1: the dissociation constant Kd in assay [1] turned out to be 0.596 nM.

B2: HB1905 (bispecific antibody)
light 1: DIQMTQTTSSLSASLGDRVTISCRASQDISKYLNWYQEKPDGTVKLLIYHTSRLHSGVPSRFSGSGSGTDYSLTISNLEQEDIATYFCQQGNTLPYTFGGGTKLEIKRTVAAPSVFIFPPSDEQLKSGTASVKCLLNNFYPREAKVQWKVDNALQSGNSQESVTEQDSKDSTYSLSSTLTLSKADYEKHKVYACEVTHQGLSSPVTKSFNRGEC
heavy 1: EVKLQESGPGLVAPSQSLSVTCTVSGVSLPDYGVSWIRKPPRKGLEWLGVIWGSETTYYNSALKSRLTIIKDNSKSQVFLKMSSLQTDDTAIYYCAKHYYYGGSYAMDYWGQGTSVTVSSASTKGPSVFPLAPSSKSTSGGTAALGCLVKDYFPEPVTVSWNSGALTSGVHTFPAVLQSSGLYSLESVVTVPSSSLGTQTYICNVNHKPSNTKVDKKVEPKSCTDWSPYADQSIKVRISLKSALGDKAYEWNDNEMYLFRSSVAYAMRQYFLKVKNQMILFGEEDVRVANLKPRISFNFFVTAPKNVSDIIPRTEVEKAIRMSRSRINDAFRLNDNSLEFLGIQPTLGPPNQPPVSTSTSPTRSMAPGAVHLPQPVSTRDKTHTCPPCPAPELLGGPSVFLFPPKPKDTLMISRTPEVTCVVVDVSHEDPEVKFNWYVDGVEVHNAKTKPREEQYNSTYRVVSVLTVLHQDWLNGKEYKCKVSNKALPAPIEKTISKAKGQPREPQVCTLPPSRDELTKNQVSLSCAVKGFYPSDIAVEWESNGQPENNYKTTPPVLDSDGSFFLVSKLTVDKSRWQQGNVFSCSVMHEALHNRFTQKSLSLSPG
light 2: QVQLQQPGAELVKPGASVKMSCKASGYTFTSYNMHWVKKTPGRGLEWIGAIYPGNGDTSYNQKFKGKATLTADKSSSTAYMQLSSLTSEDSAVYYCARSTYYGGDWYFNVWGAGTLVTVSSASVAAPSVFIFPPSDEQLKSGTASVECLLNNFYPREAKVQWKVDNALQSGNSQESVTEQDSKDSTYSLSSTLTLSKADYEKHKVYACEVTHQGLSSPVTKSFNRGEC
heavy 2: not shown
With B2, the Kd in assay [2] was 0.234 nM; with recombinant human CD19, 4.8 nM; in assay [3] it was 380 nM; in assay [1], less than 0.18 nM; with complement component C1q, 115 nM; in assay [4] it was 493 nM.

B3: HB1906 (bispecific antibody)
light 1: DIQMTQTTSSLSASLGDRVTISCRASQDISKYLNWYQEKPDGTVKLLIYHTSRLHSGVPSRFSGSGSGTDYSLTISNLEQEDIATYFCQQGNTLPYTFGGGTKLEIKRTVAAPSVFIFPPSDEQLKSGTASVKCLLNNFYPREAKVQWKVDNALQSGNSQESVTEQDSKDSTYSLSSTLTLSKADYEKHKVYACEVTHQGLSSPVTKSFNRGEC
heavy 1: EVKLQESGPGLVAPSQSLSVTCTVSGVSLPDYGVSWIRKPPRKGLEWLGVIWGSETTYYNSALKSRLTIIKDNSKSQVFLKMSSLQTDDTAIYYCAKHYYYGGSYAMDYWGQGTSVTVSSASTKGPSVFPLAPSSKSTSGGTAALGCLVKDYFPEPVTVSWNSGALTSGVHTFPAVLQSSGLYSLESVVTVPSSSLGTQTYICNVNHKPSNTKVDKKVEPKSCTDWSPYADQSIKVRISLKSALGDKAYEWNDNEMYLFRSSVAYAMRQYFLKVKNQMILFGEEDVRVANLKPRISFNFFVTAPKNVSDIIPRTEVEKAIRMSRSRINDAFRLNDNSLEFLGIQPTLGPPNQPPVSTSTSPTRSMAPGAVHLPQPVSTRDKTHTCPPCPAPELLGGPSVFLFPPKPKDTLMISRTPEVTCVVVDVSHEDPEVKFNWYVDGVEVHNAKTKPREEQYNSTYRVVSVLTVLHQDWLNGKEYKCKVSNKALPAPIEKTISKAKGQPREPQVCTLPPSRDELTKNQVSLSCAVKGFYPSDIAVEWESNGQPENNYKTTPPVLDSDGSFFLVSKLTVDKSRWQQGNVFSCSVMHEALHNRFTQKSLSLSPG
light 2: QVQLQQPGAELVKPGASVKMSCKASGYTFTSYNMHWVKETPGRGLEWIGAIYPGNGDTSYNQKFKGKATLTADKSSSTAYMQLSSLTSEDSAVYYCARSTYYGGDWYFNVWGAGTLVTVSSASVAAPSVFIFPPSDEQLKSGTASVECLLNNFYPREAKVQWKVDNALQSGNSQESVTEQDSKDSTYSLSSTLTLSKADYEKHKVYACEVTHQGLSSPVTKSFNRGEC
heavy 2: not shown
Consider B3, for which the Kd in assay [2] is 0.259 nM; with recombinant human CD19, 3.8 nM; in assay [3] it was 329 nM; in assay [1], 0.423 nM; in the assay with complement component C1q, 115 nM; in assay [4], 488 nM.

Usually Kd stands for the equilibrium constant for the complex coming apart.

The values are drawn from patent publication US20250084169A1 (published 2025).
